B1: CPEB3 Ribozyme (parent)
chain: GGGGGCCACAGCAGAAGCGUUCACGUCGCGGCCCCUGUCAGAUUCUGGUGAAUCUGCGAAUUCUGCUGU

Variants of: B1
Assay: self-cleavage, relative activity (ratio to wild type); higher = more cleavage; co-transcriptional

First: C7G C9A
Second: C7G C9G
The self-cleavage of the first is lower: 0.898 for the first, 0.966 for the second.

Going from C7U U55A to C7U C24A, the self-cleavage falls from 0.914 to 0.499.

First: C7G U36C
Second: C7G U36G
The self-cleavage of the first is lower: 0.0551 for the first, 0.147 for the second.

Compared with C7U G47A, C7U G47C is lower in self-cleavage: 0.954 for the first, 0.917 for the second.

First: C7U A60G
Second: C7U A60U
The self-cleavage of the first is higher: 0.789 for the first, 0.244 for the second.

Going from A8C C27A to A8C C27G, the self-cleavage falls from 0.555 to 0.112.

Compared with C7G G65C, C7G G65A is higher in self-cleavage: 0.126 for the first, 0.162 for the second.

First: C7G G65U
Second: C7U U44C
The self-cleavage of the first is lower: 0.217 for the first, 0.829 for the second.

First: C7U A10G
Second: C7U A10C
The self-cleavage of the first is lower: 0.947 for the first, 0.994 for the second.

Going from C7U A10U to C7U G68C, the self-cleavage falls from 0.981 to 0.673.

Compared with C7U G68A, C7G C54U is lower in self-cleavage: 0.971 for the first, 0.507 for the second.

Compared with C7G C54A, C7G C54G is higher in self-cleavage: 0.138 for the first, 0.17 for the second.

First: C7U A52C
Second: C7U C12A
The self-cleavage of the first is higher: 0.914 for the first, 0.555 for the second.

Compared with C7G A10C, C7G A10G is lower in self-cleavage: 0.703 for the first, 0.671 for the second.

First: C7G A10U
Second: C7G
The self-cleavage of the first is higher: 0.683 for the first, 0.497 for the second.

Compared with C7U, C7G G50U is lower in self-cleavage: 0.968 for the first, 0.465 for the second.

Going from C7G G50C to C7G G50A, the self-cleavage rises from 0.294 to 0.456.

Compared with C7G U26C, C7G G28U is lower in self-cleavage: 0.247 for the first, 0.0797 for the second.

First: A8C C45A
Second: A8C C45U
The self-cleavage of the first is lower: 1.01 for the first, 1.04 for the second.

First: C7G G19U
Second: C7G G19A
The self-cleavage of the first is higher: 0.0728 for the first, 0.0606 for the second.

Compared with C7G U69G, C7G U69C is higher in self-cleavage: 0.779 for the first, 0.861 for the second.

Compared with A8C C34U, A8C C34A is lower in self-cleavage: 0.972 for the first, 0.834 for the second.

Compared with A8C C34G, A8C A52G is higher in self-cleavage: 0.859 for the first, 0.974 for the second.

Going from A8C A52C to C7G A15C, the self-cleavage falls from 0.941 to 0.0463.

Going from C7G A15G to C7U A59U, the self-cleavage rises from 0.248 to 0.554.

Compared with C7U A59C, C7U A59G is higher in self-cleavage: 0.403 for the first, 0.93 for the second.

Compared with A8C, C7U G14U is lower in self-cleavage: 0.999 for the first, 0.503 for the second.

Compared with C7U G14A, A8C A15U is higher in self-cleavage: 0.509 for the first, 0.873 for the second.

Compared with A8C A15C, C7U C54A is higher in self-cleavage: 0.726 for the first, 0.831 for the second.

Going from C7U C54U to C7U A51G, the self-cleavage rises from 0.967 to 0.984.

Compared with C7U A51U, C7U A51C is lower in self-cleavage: 0.976 for the first, 0.966 for the second.

Going from C7U G28U to C7U G28C, the self-cleavage rises from 0.146 to 0.197.

First: A8C C29A
Second: C7G C39A
The self-cleavage of the first is higher: 0.532 for the first, 0.141 for the second.

First: C7G C39G
Second: C7G C39U
The self-cleavage of the first is lower: 0.236 for the first, 0.326 for the second.

Compared with C7G C24U, C7G C24G is lower in self-cleavage: 0.107 for the first, 0.0776 for the second.

Compared with A8C C18U, A8C C18G is lower in self-cleavage: 0.88 for the first, 0.186 for the second.

Going from C7G U61A to C7G U61G, the self-cleavage rises from 0.159 to 0.172.

Going from C7G U61C to C7U U38G, the self-cleavage rises from 0.175 to 0.193.

Going from C7U U38C to C7U U38A, the self-cleavage falls from 0.819 to 0.774.

Going from C7U C57A to C7U C57U, the self-cleavage falls from 0.35 to 0.305.

Compared with C7G U62C, C7G U62G is lower in self-cleavage: 0.285 for the first, 0.244 for the second.

Compared with C7G C66A, C7G C66U is higher in self-cleavage: 0.134 for the first, 0.459 for the second.

First: C7G C66G
Second: C7U G48A
The self-cleavage of the first is lower: 0.176 for the first, 0.987 for the second.

First: C7U G48U
Second: C7G U67C
The self-cleavage of the first is higher: 0.966 for the first, 0.635 for the second.

Going from C7G U67A to A8C A13C, the self-cleavage rises from 0.773 to 0.927.

First: C7U U21G
Second: C7U U21A
The self-cleavage of the first is lower: 0.34 for the first, 0.967 for the second.

First: C7U G50C
Second: C7U G50U
The self-cleavage of the first is higher: 0.965 for the first, 0.96 for the second.

First: C7U C18U
Second: C7U C18A
The self-cleavage of the first is higher: 0.702 for the first, 0.165 for the second.

Compared with A8C C22U, A8C C22G is lower in self-cleavage: 0.22 for the first, 0.19 for the second.

Compared with A8C C22A, C7U U67G is higher in self-cleavage: 0.163 for the first, 0.959 for the second.

First: C7U U67C
Second: C7U U67A
The self-cleavage of the first is lower: 0.982 for the first, 0.985 for the second.

Compared with C7A U62C, C7A U62A is higher in self-cleavage: 0.269 for the first, 0.275 for the second.

First: C7G A23C
Second: C7G A42G
The self-cleavage of the first is higher: 0.319 for the first, 0.306 for the second.

Going from C7G A42C to A8C A23G, the self-cleavage rises from 0.198 to 0.997.

Compared with A8C A23U, A8C A23C is lower in self-cleavage: 1.01 for the first, 0.907 for the second.

Compared with C7U G65U, C7U G65A is higher in self-cleavage: 0.612 for the first, 0.781 for the second.

Compared with C7U G65C, C7G A8U is higher in self-cleavage: 0.604 for the first, 0.614 for the second.

Compared with C7G A8C, C7G A8G is lower in self-cleavage: 0.514 for the first, 0.346 for the second.

Going from A8C A16G to A8C A16C, the self-cleavage falls from 0.962 to 0.325.

Compared with A8C A16U, C7U A16U is lower in self-cleavage: 0.843 for the first, 0.617 for the second.

Compared with C7U A16C, A8C C57U is higher in self-cleavage: 0.145 for the first, 0.357 for the second.

Going from A8C C57A to A8C C57G, the self-cleavage rises from 0.352 to 0.446.

Compared with A8C C33A, A8C C33G is lower in self-cleavage: 0.897 for the first, 0.527 for the second.

First: C7U C22A
Second: C7U C22G
The self-cleavage of the first is lower: 0.103 for the first, 0.117 for the second.

Going from C7U C35U to C7U U64A, the self-cleavage falls from 0.947 to 0.908.

First: C7U U64C
Second: C7U C66G
The self-cleavage of the first is lower: 0.794 for the first, 0.898 for the second.

Compared with A8C G17A, A8C A60U is higher in self-cleavage: 0.269 for the first, 0.413 for the second.

Compared with A8C A60C, A8C A60G is higher in self-cleavage: 0.382 for the first, 0.953 for the second.

First: C7U C27G
Second: C7U C27A
The self-cleavage of the first is lower: 0.159 for the first, 0.289 for the second.

First: C7U C27U
Second: C7U U49C
The self-cleavage of the first is lower: 0.247 for the first, 0.854 for the second.

First: C7U U49G
Second: A8C C63U
The self-cleavage of the first is higher: 0.993 for the first, 0.972 for the second.

Compared with A8C C63A, C7U G25C is lower in self-cleavage: 0.76 for the first, 0.0703 for the second.

First: C7U G25A
Second: C7G C35U
The self-cleavage of the first is lower: 0.144 for the first, 0.248 for the second.

Going from C7G C35G to C7G A16G, the self-cleavage rises from 0.0899 to 0.329.

Going from C7G A16C to C7G A16U, the self-cleavage falls from 0.0882 to 0.0326.

First: C7U G41U
Second: C7U G41A
The self-cleavage of the first is lower: 0.692 for the first, 0.748 for the second.

Compared with C7U C39U, C7U C39A is lower in self-cleavage: 0.803 for the first, 0.686 for the second.

Compared with C7U C39G, C7G U21C is lower in self-cleavage: 0.911 for the first, 0.173 for the second.

Going from C7G G17A to C7G G58C, the self-cleavage rises from 0.11 to 0.285.

Going from C7G G58U to C7G C45U, the self-cleavage falls from 0.528 to 0.425.

Compared with C7G C45G, C7G C45A is higher in self-cleavage: 0.295 for the first, 0.378 for the second.

Compared with C7U U53A, C7U U53G is higher in self-cleavage: 0.861 for the first, 0.949 for the second.

Compared with C7G G48A, C7G G48U is higher in self-cleavage: 0.457 for the first, 0.548 for the second.

Work on C7U C63U yielded a self-cleavage of 0.948.
